The values that follow come from paper doi:10.1101/2020.09.30.318261.

For this test, the target named is SARS-CoV-2 prefusion stabilised spike ectodomain trimer (SARS-CoV-2) (UniProt P0DTC2). Description: cryo-EM structure.

The term stoichiometry N denotes a count of units in the complex or per binding partner. The substance “SARS-CoV-2 prefusion stabilised spike ectodomain trimer (from UniProt P0DTC2 14-1200) (domain or fragment)” came in with a stoichiometry N of 3.
